According to US12679878B2, “CRF2 receptor agonists and their use in therapy” (SANOFI, priority 2020, dated 2026):
Starred links: 1 amine or outer side, 2 acyl side, 3 side chain; linkers in the order of their positions; H or OH if unused. Non-standard residues stand in square brackets, D forms with d. Groups on a side chain read outwards from the residue. No end group written: not given here. *: point of attachment. C18 diacid = O=C(O)CCCCCCCCCCCCCCCCC(=O)*; γGlu = O=C(O)[C@H](CCC(=O)[*:2])N[*:1]; AEEA = NCCOCCOCC(=O)O; Aib = CC(C)(N)C(=O)O

B1: SEQ ID NO: 132 (peptide)
peptide: IVLSLD[dV]PIKLK([AEEA-AEEA-γGlu-C18 diacid])QILLEQERQK[Aib]QREQAEKNKQILERV-NH2
modifications: N-terminus assumed
SMILES: CC[C@H](C)[C@H](N)C(=O)N[C@H](C(=O)N[C@@H](CC(C)C)C(=O)N[C@@H](CO)C(=O)N[C@@H](CC(C)C)C(=O)N[C@@H](CC(=O)O)C(=O)N[C@@H](C(=O)N1CCC[C@H]1C(=O)N[C@H](C(=O)N[C@@H](CCCCN)C(=O)N[C@@H](CC(C)C)C(=O)N[C@@H](CCCCNC(=O)COCCOCCNC(=O)COCCOCCNC(=O)CC[C@H](NC(=O)CCCCCCCCCCCCCCCCC(=O)O)C(=O)O)C(=O)N[C@@H](CCC(N)=O)C(=O)N[C@H](C(=O)N[C@@H](CC(C)C)C(=O)N[C@@H](CC(C)C)C(=O)N[C@@H](CCC(=O)O)C(=O)N[C@@H](CCC(N)=O)C(=O)N[C@@H](CCC(=O)O)C(=O)N[C@@H](CCCNC(=N)N)C(=O)N[C@@H](CCC(N)=O)C(=O)N[C@@H](CCCCN)C(=O)NC(C)(C)C(=O)N[C@@H](CCC(N)=O)C(=O)N[C@@H](CCCNC(=N)N)C(=O)N[C@@H](CCC(=O)O)C(=O)N[C@@H](CCC(N)=O)C(=O)N[C@@H](C)C(=O)N[C@@H](CCC(=O)O)C(=O)N[C@@H](CCCCN)C(=O)N[C@@H](CC(N)=O)C(=O)N[C@@H](CCCCN)C(=O)N[C@@H](CCC(N)=O)C(=O)N[C@H](C(=O)N[C@@H](CC(C)C)C(=O)N[C@@H](CCC(=O)O)C(=O)N[C@@H](CCCNC(=N)N)C(=O)N[C@H](C(N)=O)C(C)C)[C@@H](C)CC)[C@@H](C)CC)[C@@H](C)CC)C(C)C)C(C)C
B2: SEQ ID NO: 133 (peptide)
peptide: IVLSLD[dV]PIKLK([AEEA-AEEA-γGlu-C18 diacid])QILLKQERQK[Aib]QREQAEKNKQILERV-NH2
modifications: N-terminus assumed
SMILES: CC[C@H](C)[C@H](N)C(=O)N[C@H](C(=O)N[C@@H](CC(C)C)C(=O)N[C@@H](CO)C(=O)N[C@@H](CC(C)C)C(=O)N[C@@H](CC(=O)O)C(=O)N[C@@H](C(=O)N1CCC[C@H]1C(=O)N[C@H](C(=O)N[C@@H](CCCCN)C(=O)N[C@@H](CC(C)C)C(=O)N[C@@H](CCCCNC(=O)COCCOCCNC(=O)COCCOCCNC(=O)CC[C@H](NC(=O)CCCCCCCCCCCCCCCCC(=O)O)C(=O)O)C(=O)N[C@@H](CCC(N)=O)C(=O)N[C@H](C(=O)N[C@@H](CC(C)C)C(=O)N[C@@H](CC(C)C)C(=O)N[C@@H](CCCCN)C(=O)N[C@@H](CCC(N)=O)C(=O)N[C@@H](CCC(=O)O)C(=O)N[C@@H](CCCNC(=N)N)C(=O)N[C@@H](CCC(N)=O)C(=O)N[C@@H](CCCCN)C(=O)NC(C)(C)C(=O)N[C@@H](CCC(N)=O)C(=O)N[C@@H](CCCNC(=N)N)C(=O)N[C@@H](CCC(=O)O)C(=O)N[C@@H](CCC(N)=O)C(=O)N[C@@H](C)C(=O)N[C@@H](CCC(=O)O)C(=O)N[C@@H](CCCCN)C(=O)N[C@@H](CC(N)=O)C(=O)N[C@@H](CCCCN)C(=O)N[C@@H](CCC(N)=O)C(=O)N[C@H](C(=O)N[C@@H](CC(C)C)C(=O)N[C@@H](CCC(=O)O)C(=O)N[C@@H](CCCNC(=N)N)C(=O)N[C@H](C(N)=O)C(C)C)[C@@H](C)CC)[C@@H](C)CC)[C@@H](C)CC)C(C)C)C(C)C
B3: SEQ ID NO: 130 (peptide)
peptide: IVLSLD[dV]PIKLK([AEEA-AEEA-γGlu-C18 diacid])QILLKQERQK[Aib]QREQAEKNKQILAQV-NH2
modifications: N-terminus assumed
SMILES: CC[C@H](C)[C@H](N)C(=O)N[C@H](C(=O)N[C@@H](CC(C)C)C(=O)N[C@@H](CO)C(=O)N[C@@H](CC(C)C)C(=O)N[C@@H](CC(=O)O)C(=O)N[C@@H](C(=O)N1CCC[C@H]1C(=O)N[C@H](C(=O)N[C@@H](CCCCN)C(=O)N[C@@H](CC(C)C)C(=O)N[C@@H](CCCCNC(=O)COCCOCCNC(=O)COCCOCCNC(=O)CC[C@H](NC(=O)CCCCCCCCCCCCCCCCC(=O)O)C(=O)O)C(=O)N[C@@H](CCC(N)=O)C(=O)N[C@H](C(=O)N[C@@H](CC(C)C)C(=O)N[C@@H](CC(C)C)C(=O)N[C@@H](CCCCN)C(=O)N[C@@H](CCC(N)=O)C(=O)N[C@@H](CCC(=O)O)C(=O)N[C@@H](CCCNC(=N)N)C(=O)N[C@@H](CCC(N)=O)C(=O)N[C@@H](CCCCN)C(=O)NC(C)(C)C(=O)N[C@@H](CCC(N)=O)C(=O)N[C@@H](CCCNC(=N)N)C(=O)N[C@@H](CCC(=O)O)C(=O)N[C@@H](CCC(N)=O)C(=O)N[C@@H](C)C(=O)N[C@@H](CCC(=O)O)C(=O)N[C@@H](CCCCN)C(=O)N[C@@H](CC(N)=O)C(=O)N[C@@H](CCCCN)C(=O)N[C@@H](CCC(N)=O)C(=O)N[C@H](C(=O)N[C@@H](CC(C)C)C(=O)N[C@@H](C)C(=O)N[C@@H](CCC(N)=O)C(=O)N[C@H](C(N)=O)C(C)C)[C@@H](C)CC)[C@@H](C)CC)[C@@H](C)CC)C(C)C)C(C)C
B4: SEQ ID NO: 129 (peptide)
peptide: IVLSLD[dV]PIKLK([AEEA-AEEA-γGlu-C18 diacid])QILLEQERQK[Aib]QREQAEKNKQILAQV-NH2
modifications: N-terminus assumed
SMILES: CC[C@H](C)[C@H](N)C(=O)N[C@H](C(=O)N[C@@H](CC(C)C)C(=O)N[C@@H](CO)C(=O)N[C@@H](CC(C)C)C(=O)N[C@@H](CC(=O)O)C(=O)N[C@@H](C(=O)N1CCC[C@H]1C(=O)N[C@H](C(=O)N[C@@H](CCCCN)C(=O)N[C@@H](CC(C)C)C(=O)N[C@@H](CCCCNC(=O)COCCOCCNC(=O)COCCOCCNC(=O)CC[C@H](NC(=O)CCCCCCCCCCCCCCCCC(=O)O)C(=O)O)C(=O)N[C@@H](CCC(N)=O)C(=O)N[C@H](C(=O)N[C@@H](CC(C)C)C(=O)N[C@@H](CC(C)C)C(=O)N[C@@H](CCC(=O)O)C(=O)N[C@@H](CCC(N)=O)C(=O)N[C@@H](CCC(=O)O)C(=O)N[C@@H](CCCNC(=N)N)C(=O)N[C@@H](CCC(N)=O)C(=O)N[C@@H](CCCCN)C(=O)NC(C)(C)C(=O)N[C@@H](CCC(N)=O)C(=O)N[C@@H](CCCNC(=N)N)C(=O)N[C@@H](CCC(=O)O)C(=O)N[C@@H](CCC(N)=O)C(=O)N[C@@H](C)C(=O)N[C@@H](CCC(=O)O)C(=O)N[C@@H](CCCCN)C(=O)N[C@@H](CC(N)=O)C(=O)N[C@@H](CCCCN)C(=O)N[C@@H](CCC(N)=O)C(=O)N[C@H](C(=O)N[C@@H](CC(C)C)C(=O)N[C@@H](C)C(=O)N[C@@H](CCC(N)=O)C(=O)N[C@H](C(N)=O)C(C)C)[C@@H](C)CC)[C@@H](C)CC)[C@@H](C)CC)C(C)C)C(C)C
B5: SEQ ID NO: 134 (peptide)
peptide: IVLSLD[dV]PIKLK([AEEA-AEEA-γGlu-C18 diacid])QILLKQERQK[Aib]QREKAEKNKQILAQV-NH2
modifications: N-terminus assumed
SMILES: CC[C@H](C)[C@H](N)C(=O)N[C@H](C(=O)N[C@@H](CC(C)C)C(=O)N[C@@H](CO)C(=O)N[C@@H](CC(C)C)C(=O)N[C@@H](CC(=O)O)C(=O)N[C@@H](C(=O)N1CCC[C@H]1C(=O)N[C@H](C(=O)N[C@@H](CCCCN)C(=O)N[C@@H](CC(C)C)C(=O)N[C@@H](CCCCNC(=O)COCCOCCNC(=O)COCCOCCNC(=O)CC[C@H](NC(=O)CCCCCCCCCCCCCCCCC(=O)O)C(=O)O)C(=O)N[C@@H](CCC(N)=O)C(=O)N[C@H](C(=O)N[C@@H](CC(C)C)C(=O)N[C@@H](CC(C)C)C(=O)N[C@@H](CCCCN)C(=O)N[C@@H](CCC(N)=O)C(=O)N[C@@H](CCC(=O)O)C(=O)N[C@@H](CCCNC(=N)N)C(=O)N[C@@H](CCC(N)=O)C(=O)N[C@@H](CCCCN)C(=O)NC(C)(C)C(=O)N[C@@H](CCC(N)=O)C(=O)N[C@@H](CCCNC(=N)N)C(=O)N[C@@H](CCC(=O)O)C(=O)N[C@@H](CCCCN)C(=O)N[C@@H](C)C(=O)N[C@@H](CCC(=O)O)C(=O)N[C@@H](CCCCN)C(=O)N[C@@H](CC(N)=O)C(=O)N[C@@H](CCCCN)C(=O)N[C@@H](CCC(N)=O)C(=O)N[C@H](C(=O)N[C@@H](CC(C)C)C(=O)N[C@@H](C)C(=O)N[C@@H](CCC(N)=O)C(=O)N[C@H](C(N)=O)C(C)C)[C@@H](C)CC)[C@@H](C)CC)[C@@H](C)CC)C(C)C)C(C)C
B6: SEQ ID NO: 131 (peptide)
peptide: IVLSLD[dV]PIKLK([AEEA-AEEA-γGlu-C18 diacid])QILLEQERQK[Aib]QRQQAEKNKQILAQV-NH2
modifications: N-terminus assumed
SMILES: CC[C@H](C)[C@H](N)C(=O)N[C@H](C(=O)N[C@@H](CC(C)C)C(=O)N[C@@H](CO)C(=O)N[C@@H](CC(C)C)C(=O)N[C@@H](CC(=O)O)C(=O)N[C@@H](C(=O)N1CCC[C@H]1C(=O)N[C@H](C(=O)N[C@@H](CCCCN)C(=O)N[C@@H](CC(C)C)C(=O)N[C@@H](CCCCNC(=O)COCCOCCNC(=O)COCCOCCNC(=O)CC[C@H](NC(=O)CCCCCCCCCCCCCCCCC(=O)O)C(=O)O)C(=O)N[C@@H](CCC(N)=O)C(=O)N[C@H](C(=O)N[C@@H](CC(C)C)C(=O)N[C@@H](CC(C)C)C(=O)N[C@@H](CCC(=O)O)C(=O)N[C@@H](CCC(N)=O)C(=O)N[C@@H](CCC(=O)O)C(=O)N[C@@H](CCCNC(=N)N)C(=O)N[C@@H](CCC(N)=O)C(=O)N[C@@H](CCCCN)C(=O)NC(C)(C)C(=O)N[C@@H](CCC(N)=O)C(=O)N[C@@H](CCCNC(=N)N)C(=O)N[C@@H](CCC(N)=O)C(=O)N[C@@H](CCC(N)=O)C(=O)N[C@@H](C)C(=O)N[C@@H](CCC(=O)O)C(=O)N[C@@H](CCCCN)C(=O)N[C@@H](CC(N)=O)C(=O)N[C@@H](CCCCN)C(=O)N[C@@H](CCC(N)=O)C(=O)N[C@H](C(=O)N[C@@H](CC(C)C)C(=O)N[C@@H](C)C(=O)N[C@@H](CCC(N)=O)C(=O)N[C@H](C(N)=O)C(C)C)[C@@H](C)CC)[C@@H](C)CC)[C@@H](C)CC)C(C)C)C(C)C

Molecular target: human corticotropin-releasing factor 2α (CRF2 α receptor) (human), Q13324
Sequence (Q13324 20-411): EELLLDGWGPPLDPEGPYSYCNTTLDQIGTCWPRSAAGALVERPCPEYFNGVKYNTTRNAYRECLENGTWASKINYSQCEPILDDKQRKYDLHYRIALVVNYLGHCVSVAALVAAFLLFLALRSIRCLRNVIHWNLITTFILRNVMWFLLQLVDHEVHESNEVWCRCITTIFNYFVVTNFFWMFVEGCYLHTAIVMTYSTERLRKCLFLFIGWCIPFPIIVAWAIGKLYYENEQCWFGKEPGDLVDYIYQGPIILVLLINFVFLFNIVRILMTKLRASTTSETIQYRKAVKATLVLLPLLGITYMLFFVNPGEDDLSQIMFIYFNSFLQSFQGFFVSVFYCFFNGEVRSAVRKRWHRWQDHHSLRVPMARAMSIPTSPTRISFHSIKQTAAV
Assay: cell-based or functional assay

Binder | EC50 [nM], 0% HSA [nM] | EC50 [nM], 0.1% HSA [nM]
B1 | 0.38 | 8.76
B2 | 0.09 | 3.19
B3 | 0.05 | 2.11
B4 | 0.15 | 3.02
B5 | 0.07 | 3.44
B6 | 0.11 | 2.44
